Assay results taken from patent US10098967B2, “Self-assembly of therapeutic agent-peptide nanostructures” (Ohio State Innovation Foundation, priority 2012, dated 2018).
Where a name gives a salt, the structure may show the parent alone. Peptide text beside a SMILES is read from it. * marks the point of attachment. Succinyl(20-O-(20S)-CPT) = CC[C@@]1(OC(=O)CCC(=O)*)C(=O)OCc2c1cc1n(c2=O)Cc2cc3ccccc3nc2-1; Fmoc = O=C(OCC1c2ccccc2-c2ccccc21)*

Key:
[1] = Solubility in PBS and water; type: physicochemical; conditions: for solubility in water: pure water (H2O)
Experimental: Three CPT-tetrapeptide (KFKK (SEQ ID NO:6)) conjugates were prepared that have alternating hydrophobic and hydrophilic sequence similar to the dipeptide derivatives with one additional lysine bearing a charged free amine. Compound E, F, and G were soluble in both H2O and PBS but as hydrophobicity decreased by changing the N-termini from -Fmoc to —NH2, solubility in both solutions increased.

[2] = Lactone stability in human serum (HS) by HPLC
Experimental: FIG. 11 (A) is a graph showing lactone stability of CPT-dipeptides Ac-KK(CPT)-NH2 (C), and NH2—KK(CPT)-NH2 (D) in human serum (HS) at 37° C. (pH 7.4) at 1 and 10 mM, as monitored by HPLC. […] Samples were prepared at 10 mM in PBS and subsequently diluted to 1 mM in HS after 24 h.

[3] = Hydrolytic (lactone) stability in PBS by HPLC; type: physicochemical; conditions: for lactone form present after 7 days: stored at 10 mM
Experimental: The hydrolytic stability of C and D was measured by HPLC in PBS at 37° C. over a week as a function of concentration. […] The stability of the lactone depended strongly on the concentration (FIG. 11(A)). For example, the amount of lactone remaining after 7 days decreased from 91 to 30% for C upon changing the concentration from 10 to 0.2 mM). This progression is consistent with the non-covalent nature of the nanotube structures, which depend on concentration. However, even at 0.2 mM in PBS, 80% of the lactone remained after 24 h, in contrast to CPT, of which 17% of its structure was in the lactone form after 24 h under these conditions.

[4] = test system: mesothelioma tumor xenografts; test: Mesothelioma (MSTO) tumor xenograft model in mice; type: in vivo; conditions: for Deaths from Tumor Burden: MSTO model, mice, weekly
Experimental: (§1) NH2—KK(CPT)-NH2 (D) was evaluated for efficacy in treating Lewis Lung Carcinoma (LLC) and mesothelioma tumor xenografts in mice. Animals were first injected with tumor cells either into the flank (LLC model; FIG. 12) or peritoneum (mesothelioma model; Table 2)), and allowed to develop small tumors. The animals were subsequently administered weekly either intravenous or intraperitoneal drugs or saline (negative control), and monitored for tumor burden and body weight over several weeks. […] But these initial studies were extremely limited in scope, only testing one of 15-20 structures that have been created. This lower efficacy is most likely due to reduced mobility of the 1D nanotubes within tissue, a property that can be beneficially exploited to increase the retention of drug within tumors by allowing the assembly process to respond structurally in the environment of the tumor cells.

[5] = test system: Lewis Lung Carcinoma (LLC); test: Lewis Lung Carcinoma (LLC) flank tumor model in mice; type: in vivo; conditions: tumor cells into the flank, weekly intravenous or intraperitoneal
Experimental: as §1

HT-29 cells [6] = test: Flow cytometry of cellular uptake as a function of time; type: cell-based, human; conditions: as a function of incubation time
Experimental: To quantify the cellular uptake as a function of time, flow cytometry was conducted by monitoring the CPT dipetides at a wavelength of 420-470 nm after 335 nm excitation. […] An analogous flow cytometry study was performed with A549 cells, and similar results and trends were observed.

HT-29 cells [7] = test: In vitro cell assay, HT-29 viability by MTS colorimetric assay; type: cell-based, human; conditions: HT-29, 4 days growth after exposure, conjugates prepared at 10 mM in PBS, aged 3 days
Experimental: The conjugates discussed in Examples 1 and 2 were tested for efficacy against killing human colorectal cancer cells in an in vitro cell assay. HT-29 cells were plated into 96-well tissue culture plates, at a density of 5,000 cells/well, and allowed to grow overnight. The conjugates were previously prepared at 10 mM in sterile PBS and allowed to age 3 days, while all other Camptothecin drugs were prepared fresh for each experiment/replicate. Irinotecan HCl was dissolved in pH-neutral, sterile-filtered water, and S-Camptothecin and 10-hydroxycamptothecin were dissolved in DMSO due to solubility issues. Further dilutions of all drugs, both Camptothecin-peptides and free Camptothecin derivatives, were performed in cell culture medium. The cells were then exposed to serial dilutions containing the drugs or cell culture medium alone for the control. A peptide derivative was prepared without Camptothecin to serve as a control to test for toxicity of the peptides themselves, and was also tested in this assay. The cells were then allowed to grow for a further 4 days before being assessed for viability using an MTS colorimetric assay.

## CC[C@@]1(OC(=O)CCC(=O)NCCCC[C@H](NC(=O)[C@H](CCCCNC(C)=O)NC(=O)OCC2c3ccccc3-c3ccccc32)C(N)=O)C(=O)OCc2c1cc1n(c2=O)Cc2cc3ccccc3nc2-1 [A, Fmoc-K(Ac)K(CPT)-NH2]
[1]
  solubility in water: poor solubility

## CC[C@@]1(OC(=O)CCC(=O)NCCCC[C@H](NC(=O)[C@H](CCCCN)NC(C)=O)C(N)=O)C(=O)OCc2c1cc1n(c2=O)Cc2cc3ccccc3nc2-1 [C, Ac-KK(CPT)-NH2]
[2]
  lactone stability after dilution to 1 mM: significantly greater stability than D
[3]; 37° C., 0.2 mM
  lactone remaining after 24 h: 80%
  lactone remaining after 7 days: 30%
[3]; 37° C.
  lactone form present after 7 days: 91%

## CC[C@@]1(O)C(=O)OCc2c1cc1n(c2=O)Cc2cc3ccccc3nc2-1 [CPT, Camptothecin, reference compound]
[4]; 5 mg/kg
  Deaths from Tumor Burden: 0/5
[3]
  time to hydrolysis to the inactive carboxylate form: within hours
[3]; 37° C., 0.2 mM
  lactone remaining after 24 h: 17%

## CC[C@@]1(OC(=O)CCC(=O)NCCCC[C@H](NC(=O)[C@H](CCCCN)NC(=O)OCC2c3ccccc3-c3ccccc32)C(N)=O)C(=O)OCc2c1cc1n(c2=O)Cc2cc3ccccc3nc2-1 [Compound B, Fmoc-KK(CPT)-NH2]
[1]
  solubility in PBS: poor solubility

## CC[C@@]1(OC(=O)CCC(=O)NCCCC[C@H](NC(=O)[C@H](CCCCN)NC(=O)[C@H](Cc2ccccc2)NC(=O)[C@H](CCCCN)NC(=O)OCC2c3ccccc3-c3ccccc32)C(N)=O)C(=O)OCc2c1cc1n(c2=O)Cc2cc3ccccc3nc2-1 [Compound E, Fmoc-KFKK(CPT)-NH2] (Fmoc-KFKK(Succinyl(20-O-(20S)-CPT))-NH2; N-terminus and C-terminus assumed)
[1]
  solubility in PBS: soluble
  solubility in water: soluble

## CC[C@@]1(OC(=O)CCC(=O)NCCCC[C@H](NC(=O)[C@H](CCCCN)NC(=O)[C@H](Cc2ccccc2)NC(=O)[C@H](CCCCN)NC(C)=O)C(N)=O)C(=O)OCc2c1cc1n(c2=O)Cc2cc3ccccc3nc2-1 [Compound F, Ac-KFKK(CPT)-NH2] (Ac-KFKK(Succinyl(20-O-(20S)-CPT))-NH2)
[1]
  solubility in PBS: soluble
  precipitation in PBS at 10 mM: remained highly soluble
  solubility in water: soluble

## CC[C@@]1(OC(=O)CCC(=O)NCCCC[C@H](NC(=O)[C@@H](N)CCCCN)C(N)=O)C(=O)OCc2c1cc1n(c2=O)Cc2cc3ccccc3nc2-1 [D, NH2—KK(CPT)-NH2]
[4]; 5 mg/kg
  Deaths from Tumor Burden: 2/5
[4]; 15 mg/kg
  Deaths from Tumor Burden: 2/5
[4]; mesothelioma model, tumor cells into the peritoneum, weekly intravenous or intraperitoneal
  in vivo efficacy (tumor burden): lower in vivo efficacy
[1]
  solubility in PBS: limited solubility
[5]
  in vivo efficacy (tumor burden): lower in vivo efficacy
HT-29 cells [6]
  cellular uptake (fluorescence, 420-470 nm after 335 nm excitation): slightly higher than that of C
[3]; 37° C.
  lactone form present after 7 days: 71%

## CC[C@@]1(OC(=O)CCC(=O)NCCCC[C@H](NC(=O)[C@H](CCCCN)NC(=O)[C@H](Cc2ccccc2)NC(=O)[C@@H](N)CCCCN)C(N)=O)C(=O)OCc2c1cc1n(c2=O)Cc2cc3ccccc3nc2-1 [G, NH2—KFKK(CPT)-NH2] (H-KFKK(Succinyl(20-O-(20S)-CPT))-NH2)
[1]
  solubility in PBS: soluble
  precipitation in PBS at 10 mM: remained highly soluble
  solubility in water: soluble

## CCc1c2c(nc3ccc(OC(=O)N4CCC(N5CCCCC5)CC4)cc13)-c1cc3c(c(=O)n1C2)COC(=O)[C@]3(O)CC [Irinotecan HCl, reference compound]
[4]; 100 mg/kg
  Deaths from Tumor Burden: 0/5
HT-29 cells [7]
  potency in killing human colorectal cancer cells (viability): the least potent
HT-29 cells [6]
  cellular uptake (fluorescence, 420-470 nm after 335 nm excitation): highest fluorescence
